Test [1] addresses Antigen B (monomeric lower molecular weight protein). Description: Biacore SPR at 25°C; mAb captured on anti-human Fc (236.1±0.8 RU), Antigen B injected at 90 nM. A general note: Surface plasmon resonance follows binding to a sensor surface in real time, without labels.
Test [2] concerns the target Antigen A (multivalent high molecular weight protein). Kind of test: Biacore SPR at 25°C; mAb captured on anti-human Fc (236.5±1.0 RU), Antigen A injected at 100 nM.

With isotype control antibody (CI), in test [1], the Antigen B bound - 90 nM (RU) was 7 RU. Also, the Antigen A bound - 100 nM (RU) in test [2] stood at 18 RU.

The record behind these values is US20210355238A1.
